The target in assay [1] is CD47 on human red blood cells (human) (UniProt Q08722). The assay is described as follows: flow cytometry on human RBCs, Donor 2.
For assay [2] the target is unchanged. The assay is described as follows: flow cytometry on human RBCs, Donor 1.
For the next assay, the target named is T1, human CD47-ECD (human, UniProt Q08722 19-139, limits assumed, N-terminal pyroglutamate (seen in the crystal structure)).
T1 construct: extracellular domain; also called recombinant CD47-ECD; CD47 ECD protein
The assay is described as follows: ELISA on recombinant CD47-ECD; recombinant CD47-ECD. (ELISA stands for enzyme-linked immunosorbent assay.)

The target in assay [3] is T2, CD47 (form not stated) (UniProt Q08722 19-139, limits assumed). The assay is described as follows: CD47-SIRPα blocking assay; format not stated; blocking of CD47 binding to SIRPα.
In assay [4] the target is T3, human CD47 on Raji cells (human, UniProt Q08722 19-323).
T3 construct: whole, on cells; also called CD47+ Raji cells; CD47-bearing Raji cells
The assay is described as follows: flow cytometry on Raji cells; CD47-bearing Raji cells. Background: Flow cytometry measures light scatter and fluorescence of single cells or particles in a stream.

For assay [5], the target named is T2, CD47 (form not stated). The assay can be described thus: Biacore.
Assay [6] addresses T4, recombinant human CD47-Fc fusion protein (Acrobiosystems) (human, UniProt Q08722 19-139).
T4 construct: extracellular domain; also called recombinant CD47-Fc fusion protein; not shown: Fc
The assay can be described thus: competition ELISA: blocks SIRPα-His binding to coated CD47-Fc.

In assay [7] the target is T5, recombinant human CD47/mouse Fc fusion protein (Acrobiosystems) (human, UniProt Q08722 19-139).
T5 construct: extracellular domain; Bought reagent; also called dimeric CD47-ECD; not shown: Mouse Fc
The assay is described as follows: ELISA on recombinant CD47-ECD (FIG. 2b, dimeric CD47-ECD).

Assay [8] deals with T2, CD47 (form not stated). The assay can be described thus: BiaCore (SPR); format not stated.
Assay [9] has as its target T5, recombinant human CD47/mouse Fc fusion …. The assay is described as follows: ELISA, CD47/mouse Fc coated at 1 ug/ml, anti-human Fc HRP.
Protocol: CD47/mouse Fc fusion protein (Acrobiosystems) was coated at 1 ug/ml in PBS onto microtiter plates for 2 hours at RT. After coating of antigen the wells were blocked with PBS/0.05% Tween (PBST) with 1% BSA for 1 hour at RT. After washing of the wells with PBST, different concentrations of anti-CD47 antibodies were added to the well and incubated for 1 at RT. For detection of the binding antibodies, the HRP conjugated secondary antibodies against human Fc (Jackson Immuno Research) were added followed by the addition of fluorogenic substrates (Roche). Between all incubation steps, the wells of the plate were washed with PBST three times. Fluorescence was measured in a TECAN Spectrafluor plate reader.
The target of assay [10] is T3, human CD47 on Raji cells. The assay can be described thus: flow cytometry on Raji cells, APC anti-human Fc.
Protocol: (§1) Then, the cells were washed with PBS three times, followed by incubation with APC-labeled anti-human Fc specific antibody (Invitrogen) at 4° C. for 30 minutes. Binding was measured using a FACSCanto (Becton-Dickinson).
Assay [11] addresses T6, Tag1-CD47 (Cisbio HTRF kit) (UniProt Q08722 19-139).
T6 construct: Kit reagent
The assay can be described thus: HTRF competition: blocks Tag1-CD47 / Tag2-SIRPα interaction (Cisbio).
Protocol: (§2) The mixture was incubated at 25° C. for 15 minutes, and further incubated at 25° C. for 1 hour after conjugates pre-mixture was added. Then the plate sealer was removed and fluorescence data was read on a PerkinElmer Envision plate reader.

For assay [12], the target named is T7, biotinylated human CD47-ECD protein (Acrobiosystems) (human, UniProt Q08722 19-139, biotinylated (site not stated)).
T7 construct: extracellular domain; Bought reagent; also called biotinylated CD47 protein; monomeric CD47-ECD
The assay can be described thus: ELISA, biotinylated CD47 coated at 1 ug/mL, anti-human Fc HRP.

In assay [13] the target is CD47 on human platelets (human) (UniProt Q08722). The assay is described as follows: flow cytometry on human whole blood, gated on CD61 positive platelets, antibody at 10 ug/mL.
The target in assay [14] is T3, human CD47 on Raji cells. The assay is described as follows: flow cytometry on Raji cells.
Protocol: as §1
Assay [15] has as its target T4, recombinant human CD47-Fc fusion …. The assay can be described thus: blocking ELISA, CD47-Fc coated, blocked ligand SIRPa-His at 1 ug/mL, anti-His HRP.
Protocol: Recombinant CD47-Fc fusion protein (Acrobiosystems) was coated at 1 ug/ml in PBS onto microtiter plates for 16 hours at 4° C. […] Plates were subsequently washed three times and incubated with an HRP-conjugated anti-His secondary antibody for 1 h at RT.
In assay [16] the target is T6, Tag1-CD47 (Cisbio HTRF kit). The assay can be described thus: HTRF CD47-SIRPa binding assay (ratio 665 nm / 615 nm), blocked ligand Tag2-SIRPa. For orientation: In TR-FRET formats the signal depends on donor and acceptor labels being close together.
Protocol: as §2
Assay [17] has as its target T2, CD47 (form not stated). The assay can be described thus: Biacore (SPR); format not stated.
Assay [18] addresses T3, human CD47 on Raji cells. The assay can be described thus: flow cytometry on Raji cells, MFI.

In general, EC50 refers to the concentration needed to bring the measured effect to its halfway point. As a reminder, the kon is the second-order rate constant of association. Read a low kon as slower complex formation. As a reminder, the IC50 is the concentration at which inhibition is half-maximal. By Kd is commonly meant the concentration at which binding is half-saturated. A high value points to lower affinity. Usually koff stands for the rate constant with which the complex falls apart. A lower koff goes with a long-lived complex. As a reminder, the EC50 (read off the curve) is the concentration giving half of the maximal effect.

For IgG (antibody), the percent of cells in the binding gate in [1] is 0.018%; in [2], 0.079%.

B1: CD47 antibody 34C5 (antibody, V domains shown)
VH: QVQLVQSGAEVKKPGSSVKVSCKASGYTFSSYYMHWVRQAPGQGLEWMGEINPNNARINFNEKFKTRVTLTVDKSTSTAYMELSSLRSEDTAVYYCTRGYYRYGAWFGYWGQGTLVTVSS
VL: DIQMTQSPSSLSASVGDRVTITCRASQDISDYLNWYQQKPGKAPKLLIYYISRLHSGVPSRFSGSGSGTDYTLTISSLQPEDFATYYCQQGHTLPWTFGGGTKVEIK
Consider B1, for which the EC50 was 0.27 nM with human CD47-ECD, 0.3 nM with CD47 (form not stated) [3] and 0.83 nM with human CD47 on Raji cells [4].

B2: CD47 antibody 1F8 (antibody, human IgG1, V domains shown)
VH: KVQLVESGGGLVKPGGSLRLSCAASGFTFSNAWMNWVRQAPGKGLEWVGRIKRKTDGETTDYAAPVKGRFSISRDDSKNTLYLQMNSLKTEDTAVYYCAGSNRAFDIWGQGTMVTVSA
VL: DIVMTQSPDSLAVSLGERATINCKSSQSVLYSSNNRNYLAWYQQKPGQPPKLLINQASTRASGVPDRFSGSGSGTEFTLIISSLHAEDVAIYYCQQYYTPPLAFGGGTKLEIK
In the case of B2, the kon in the assay with CD47 (form not stated) [5] was found to be 375000 M⁻¹ s⁻¹. For the same molecule, the IC50 in [6] came to 0.78 nM; in assay [11], 1.6 nM. The EC50 in assay [7] was 0.038 nM; in the assay with human CD47 on Raji cells [14], 2.95 nM. Besides, the percent of cells in the binding gate in assay [1] is 0.076%; in assay [2] it was 0.065%. Besides, binding with CD47 (form not stated) [8] was characterised by a dissociation constant (Kd) of 2.8 nM. The molecule also gave a koff with CD47 (form not stated) [8] of 0.00104 s⁻¹. The “EC50 (read off the curve)” value is about 6 ng/mL in assay [9], about 200 ng/mL in the assay with human CD47 on Raji cells [10] and about 9 ng/mL in [12]. In assay [13], this molecule had a percent of CD61+ platelets in the binding gate of 0.77%. For the same molecule, in assay [15], the “IC50 (read off the curve)” value was about 300 ng/mL.

B3: CD47 antibody 13H3 (antibody, V domains shown)
VH: KVQLVESGGGLVKPGGSLRLSCAASGLTFERAWMNWVRQAPGKGLEWVGRIKRKTDGETTDYAAPVKGRFSISRDDSKNTLYLQMNSLKTEDTAVYYCAGSNRAFDIWGQGTMVTVSA
VL: DIVMTQSPDSLAVSLGERATINCKSSQSVLYAGNNRNYLAWYQQKPGQPPKLLINQASTRASGVPDRFSGSGSGTEFTLIISSLQAEDVAIYYCQQYYTPPLAFGGGTKLEIK
Turning to B3, the IC50 was determined as 0.36 nM in [16] and 0.2 nM in [6]. In addition, the Kd is 0.46 nM with CD47 (form not stated) [5] and 7.81 nM with CD47 (form not stated) [17]. Further, the koff with CD47 (form not stated) [5] stood at 0.000247 s⁻¹; with CD47 (form not stated) [17], 0.00282 s⁻¹. The kon with CD47 (form not stated) [5] is 533000 M⁻¹ s⁻¹; with CD47 (form not stated) [17], 361000 M⁻¹ s⁻¹. The values for the EC50 (in assay [7]; with human CD47 on Raji cells [18]; with human CD47 on Raji cells [14]) were 0.045 nM, 1.07 nM and 1.06 nM, respectively.

Source of the values: US20200407441A1 (I MAB BIOPHARMA US, published 2020).
